The data set relates to Renilla luciferase RNA. Kind of data set: Barcoded aptazyme variant library screen: un-cleaved Renilla luciferase RNA by barcode read counts, HEK293-T cells. Format: cell-based. The note with it: un-cleaved Renilla luciferase RNA, HEK293-T cells cultured with 1 mM theophylline (ON) over without theophylline (OFF); barcode read counts, triplicate. Summed up: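 Barcode sequencing of cDNA versus DNA, normalized per aptazyme, gave the un-cleaved Renilla luciferase RNA fraction and fold-change with versus without theophylline (triplicates). Library: T3H48 ribozyme with one of seven theophylline aptamer variants inserted at each position, placed in the Renilla 3′ UTR of a dual-luciferase vector.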

B1: RA207 (nucleic acid)
DNA: GCGCGTCCTGGATTCGCGGAAACGCGTACATCCAGCTGACGAGTCCCAAGAGAATACCAGCATCGTCTTGATGCCCTTGGAAGTCTCATAGGACGAAACGCGC
modifications: expressed or natural sequence
With B1, the “Fold change in RNA expression between the ON state and the OFF state” value (“Fold change” below) was 1.2 fold.

B2: RA212 (nucleic acid)
DNA: GCGCGTCCTGGATTCAGAATACCAGCATCGTCTTGATGCCCTTGGAAGTCTGCGGAAACGCGTACATCCAGCTGACGAGTCCCAAATAGGACGAAACGCGC
modifications: expressed or natural sequence
Take B2: the “Fold change” value was determined as 1.2 fold.

B3: RA206 (nucleic acid)
DNA: GCGCGTCCTGGATTCGCCGGAATACCAGCATCGTCTTGATGCCCTTGGAAGTCCGGCGGAAACGCGTACATCCAGCTGACGAGTCCCAAATAGGACGAAACGCGC
modifications: expressed or natural sequence
Consider B3, for which the “Fold change” value turned out to be 1.2 fold.

B4: RA201 (nucleic acid)
DNA: GCGCGTCCTGGATTCGCGGAAACGCGAGAATACCAGCATCGTCTTGATGCCCTTGGAAGTCTCGCGTACATCCAGCTGACGAGTCCCAAATAGGACGAAACGCGC
modifications: expressed or natural sequence
Regarding B4, the “Fold change” value was determined as 1.2 fold.

B5: RA214 (nucleic acid)
DNA: GCGCGTCCTGGATTCGCGAGAATACCAGCATCGTCTTGATGCCCTTGGAAGTCTCGGAAACGCGTACATCCAGCTGACGAGTCCCAAATAGGACGAAACGCGC
modifications: expressed or natural sequence
B5: the “Fold change” value amounted to 1.2 fold.

B6: RA200 (nucleic acid)
DNA: GCGCGTCCTGGATTCGCGGAAACGCGTACATCCGAGAATACCAGCATCGTCTTGATGCCCTTGGAAGTCTCGCAGCTGACGAGTCCCAAATAGGACGAAACGCGC
modifications: expressed or natural sequence
On to B6, for which the “Fold change” value is 1.2 fold.

B7: RA217 (nucleic acid)
DNA: GCGCGTCCTGGATTCCGAGAATACCAGCATCGTCTTGATGCCCTTGGAAGTCTCGGCGGAAACGCGTACATCCAGCTGACGAGTCCCAAATAGGACGAAACGCGC
modifications: expressed or natural sequence
For B7, the “Fold change” value turned out to be 1.2 fold.

B8: RA213 (nucleic acid)
DNA: GCGCGTCCTGGATTCGCGGAAACGCGTACATCCAGCTCGAGAATACCAGCATCGTCTTGATGCCCTTGGAAGTCTCGGACGAGTCCCAAATAGGACGAAACGCGC
modifications: expressed or natural sequence
For B8, the “Fold change” value is 1.2 fold.

B9: RA020 (nucleic acid)
DNA: GCGCGTCCTGGATTCGCGGAAACGCGTACATCGGAATACCAGCATCGTCTTGATGCCCTTGGAAGTCCGCCAGCTGACGAGTCCCAAATAGGACGAAACGCGC
modifications: expressed or natural sequence
As for B9, the “Fold change” value turned out to be 2.7 fold.

B10: RA193 (nucleic acid)
DNA: CCGGAATACCAGCATCGTCTTGATGCCCTTGGAAGTCCGGGCGCGTCCTGGATTCGCGGAAACGCGTACATCCAGCTGACGAGTCCCAAATAGGACGAAACGCGC
modifications: expressed or natural sequence
As to B10, the “Fold change” value came out at 1.2 fold.

B11: RA204 (nucleic acid)
DNA: GCGCGTCCCGGAATACCAGCATCGTCTTGATGCCCTTGGAAGTCCGTGGATTCGCGGAAACGCGTACATCCAGCTGACGAGTCCCAAATAGGACGAAACGCGC
modifications: expressed or natural sequence
As to B11, the “Fold change” value is 1.2 fold.

B12: RA196 (nucleic acid)
DNA: GCGCGTCCTGGATTCGCGGAAACGCGTACATCCAGCTGACGAGTCCCAAATGAGAATACCAGCATCGTCTTGATGCCCTTGGAAGTCTCAGGACGAAACGCGC
modifications: expressed or natural sequence
For the molecule B12, the “Fold change” value was found to be 1.2 fold.

B13: RA199 (nucleic acid)
DNA: GCGCGTCCTGGATTCGCGGAAACAGTGATACCAGCATCGTCTTGATGCCCTTGGCAGCACTGCGTACATCCAGCTGACGAGTCCCAAATAGGACGAAACGCGC
modifications: expressed or natural sequence
On to B13, for which the “Fold change” value is recorded as 1.2 fold.

B14: RA021 (nucleic acid)
DNA: GCGCGTCCTGGATTCGCGGAAACGCGTACATCCAGCTGACGAGTCCCAAATAGAGTGATACCAGCATCGTCTTGATGCCCTTGGCAGCACTGACGAAACGCGC
modifications: expressed or natural sequence
As to B14, the “Fold change” value came out at 2.7 fold.

B15: RA198 (nucleic acid)
DNA: GCGCGTCCTGAGAATACCAGCATCGTCTTGATGCCCTTGGAAGTCTGATTCGCGGAAACGCGTACATCCAGCTGACGAGTCCCAAATAGGACGAAACGCGC
modifications: expressed or natural sequence
With B15, the “Fold change” value came to 1.2 fold.

B16: RA202 (nucleic acid)
DNA: GCGCGTCCTGGATAGTGATACCAGCATCGTCTTGATGCCCTTGGCAGCACTTCGCGGAAACGCGTACATCCAGCTGACGAGTCCCAAATAGGACGAAACGCGC
modifications: expressed or natural sequence
B16: the “Fold change” value was determined as 1.2 fold.

B17: RA211 (nucleic acid)
DNA: GCGCGTCCTGGATTCGGGAATACCAGCATCGTCTTGATGCCCTTGGAAGTCCCGGAAACGCGTACATCCAGCTGACGAGTCCCAAATAGGACGAAACGCGC
modifications: expressed or natural sequence
On to B17, for which the “Fold change” value stood at 1.2 fold.

B18: RA205 (nucleic acid)
DNA: GCGCGTCCTGGATTCGCGGAAACGCGTACATCCAGCTGACGAGTCCCAAATAGGACGAAACGCGGAATACCAGCATCGTCTTGATGCCCTTGGAAGTCCGC
modifications: expressed or natural sequence
With B18, the “Fold change” value worked out at 1.2 fold.

B19: RA019 (nucleic acid)
DNA: GCGCGTCCTGGATTCGCGGAAACGCGTACATCCAGCTGACGGGAATACCAGCATCGTCTTGATGCCCTTGGAAGTCCAGTCCCAAATAGGACAAAACGCGC
modifications: expressed or natural sequence
Regarding B19, the “Fold change” value amounted to 2.7 fold.

B20: RA203 (nucleic acid)
DNA: GCGCGTCCTGGATTCGCGGAAACGCGTACATCCAGCTGACGAGTCCCAAATAGGAAGAATACCAGCATCGTCTTGATGCCCTTGGAAGTCTCGAAACGCGC
modifications: expressed or natural sequence
On to B20, for which the “Fold change” value is listed as 1.2 fold.

B21: RA218 (nucleic acid)
DNA: GCGCGTCCTGGATTCGCGGAAACGCGTACATCCAAGTGATACCAGCATCGTCTTGATGCCCTTGGCAGCACTGCTGACGAGTCCCAAATAGGACGAAACGCGC
modifications: expressed or natural sequence
With B21, the “Fold change” value stood at 1.2 fold.

B22: RA192 (nucleic acid)
DNA: GCGCGTCCTGGATTCGCGGAAACGCGTACATCCAGCTGACGAGTCCCAAATGGAATACCAGCATCGTCTTGATGCCCTTGGAAGTCCAGGACGAAACGCGC
modifications: expressed or natural sequence
Take B22: the “Fold change” value came out at 1.2 fold.

B23: RA209 (nucleic acid)
DNA: GCGCGTCCTGGATTCGCGGAGAGAATACCAGCATCGTCTTGATGCCCTTGGAAGTCTCAACGCGTACATCCAGCTGACGAGTCCCAAATAGGACGAAACGCGC
modifications: expressed or natural sequence
Turning to B23, the “Fold change” value came to 1.2 fold.

B24: RA195 (nucleic acid)
DNA: GCGCGTCGAGAATACCAGCATCGTCTTGATGCCCTTGGAAGTCTCGCCTGGATTCGCGGAAACGCGTACATCCAGCTGACGAGTCCCAAATAGGACGAAACGCGC
modifications: expressed or natural sequence
For the molecule B24, the “Fold change” value is listed as 1.2 fold.

B25: RA197 (nucleic acid)
DNA: GCGCGTCCTGGATTCGCGGAAACGCGTACATCCAGCTGACGAGTCCCAAATAGGACAAAACGCGC
modifications: expressed or natural sequence
Regarding B25, the “Fold change” value is 1.2 fold.

B26: RA208 (nucleic acid)
DNA: GCGCGTCCTGGATTCGCGGAAACGCGTACATCCAGCTGACGAGTCCCAAACCGGAATACCAGCATCGTCTTGATGCCCTTGGAAGTCCGGTAGGACGAAACGCGC
modifications: expressed or natural sequence
For the molecule B26, the “Fold change” value is given as 1.2 fold.

B27: RA216 (nucleic acid)
DNA: GCGCGTCCTGGATTCGCGGAAACGCGTACATCCAGCTGACGAGTCAGTGATACCAGCATCGTCTTGATGCCCTTGGCAGCACTCCAAATAGGACGAAACGCGC
modifications: expressed or natural sequence
For B27, the “Fold change” value amounted to 1.2 fold.

B28: RA194 (nucleic acid)
DNA: GCGCGTCCTGGATTCGCGGAAACGCGTACATCCAGCTGACGAGAATACCAGCATCGTCTTGATGCCCTTGGAAGTCTCGAGTCCCAAATAGGACGAAACGCGC
modifications: expressed or natural sequence
As to B28, the “Fold change” value is on record as 1.2 fold.
